Patent US20260209323A1 (WHITEHEAD INSTITUTE FOR BIOMEDICAL RE SEARCH, published 2026)

T1: human gasdermin D (GSDMD), full length (human, UniProt P57764 1-484, chemically biotinylated (sites not given) in the SPR experiments)
T1 construct: Used in SPR (biotinylated), nanoDSF and the liposome assay; the same entry is used for endogenous GSDMD of THP-1 cells; also called wild type, human GSDMD; GSDMD 1-484
T1 sequence: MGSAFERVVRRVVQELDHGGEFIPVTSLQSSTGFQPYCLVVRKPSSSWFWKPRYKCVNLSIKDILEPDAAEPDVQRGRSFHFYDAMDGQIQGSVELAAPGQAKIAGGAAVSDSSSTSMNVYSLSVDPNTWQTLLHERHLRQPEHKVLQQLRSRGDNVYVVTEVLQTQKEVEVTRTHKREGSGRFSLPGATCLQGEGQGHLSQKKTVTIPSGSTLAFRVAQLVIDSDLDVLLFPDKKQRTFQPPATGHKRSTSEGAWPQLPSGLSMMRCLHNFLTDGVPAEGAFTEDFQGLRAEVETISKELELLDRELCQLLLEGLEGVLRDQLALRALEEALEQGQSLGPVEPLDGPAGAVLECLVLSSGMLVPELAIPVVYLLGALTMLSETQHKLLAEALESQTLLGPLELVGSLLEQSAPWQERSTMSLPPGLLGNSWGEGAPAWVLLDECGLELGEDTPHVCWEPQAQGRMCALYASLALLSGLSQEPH

T2: GSDMD^CT (human, UniProt P57764)
T2 construct: domain fused to Renilla luciferase; LUMIER bait; also called GSDMD^CT-Renilla luciferase fusion
T2 sequence (single chain, looked up): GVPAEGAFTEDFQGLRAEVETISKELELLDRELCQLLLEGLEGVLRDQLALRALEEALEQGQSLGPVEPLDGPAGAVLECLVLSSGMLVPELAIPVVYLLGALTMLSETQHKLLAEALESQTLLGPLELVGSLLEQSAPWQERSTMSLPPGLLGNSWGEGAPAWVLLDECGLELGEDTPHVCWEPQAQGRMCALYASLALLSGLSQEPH

T3: murine GsdmD (murine, UniProt Q9D8T2 1-487)
T3 construct: not shown: Renilla luciferase
T3 sequence (looked up): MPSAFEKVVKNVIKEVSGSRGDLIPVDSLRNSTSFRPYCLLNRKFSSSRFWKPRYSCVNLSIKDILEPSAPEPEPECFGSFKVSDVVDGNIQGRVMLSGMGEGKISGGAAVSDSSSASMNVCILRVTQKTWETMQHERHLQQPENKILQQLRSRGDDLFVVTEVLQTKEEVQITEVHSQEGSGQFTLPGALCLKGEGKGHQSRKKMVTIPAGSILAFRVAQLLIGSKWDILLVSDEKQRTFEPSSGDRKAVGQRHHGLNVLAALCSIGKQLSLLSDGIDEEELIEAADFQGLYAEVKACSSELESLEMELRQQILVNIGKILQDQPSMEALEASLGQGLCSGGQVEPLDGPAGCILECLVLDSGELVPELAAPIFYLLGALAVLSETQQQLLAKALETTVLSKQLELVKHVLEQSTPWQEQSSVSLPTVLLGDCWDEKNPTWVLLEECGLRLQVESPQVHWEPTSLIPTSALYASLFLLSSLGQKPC

B1: VHHGSDMD-6 (VHH)
VHH: QVQLVETGGGLVQPGGSLRLSCTASGFIFSANQMNWVRQAPGKGLEWLSGISTRGDTTSYADSVKGRFTISRDNAKNTLYLQMNSLQPDDTAVYFCARVCIRGPEPKLRCDDWGQGTQVTVSS
notes: Alpaca single-domain antibody; The crystal model holds VHH-6 residues 1-123; also called VHH AK-G08; VHH-6; not shown: C-terminal HA-His tag (recombinant protein: SPR, nanoDSF, liposome assay, crystal, ELISA)
B2: VHHGSDMD-1 (VHH)
VHH: QVQLVESGGALVQPGGSLRLSCSASGFTFSKYLMSWYRQAPGKERELVATITTAGGNTNYADSVKGRFTISRDNAKNTVYLQMNSLKPEDTAVYYCKASGGTIRTVNETYWGQGTQVTVSS
notes: Alpaca single-domain antibody; One entry is used for all tag variants; also called VHH AK-A04; VHH-1; not shown: C-terminal tag that differs by assay: LPETG-His (recombinant protein: SPR, nanoDSF, liposome assay), HA-His6 (ELISA), HA
B3: VHH-4 (VHH)
VHH: QVQLVESGGGLVQPGGSLRLSCAASGFTLDRHAIAWFRQAPGLEREGVVCTSSSGAITNTADSVKGRFTISRDDAKNTVYLQMNSLKPEDTAIYYCAVRELWTVQPICEPRPRAYAYWGQGTQVTVSS
notes: Alpaca single-domain antibody; also called VHH AK-C10; GSDMD4; not shown: C-terminal HA-His tag (recombinant protein: SPR, nanoDSF, liposome assay, ELISA)
B4: VHHGSDMD-3 (VHH)
VHH: QVQLVETGGGLVQPGGSLRLSCAASGFTLDIYNMGWFRQAPGKEREGVSCISSRYGTSTYYADSVKGRFTISRDNAKNTVYLQMNNLKPEDTAVYYCATVSWRFTTNQDVCLTPSVSGYWGQGTQVTVSS
notes: Alpaca single-domain antibody; One entry is used for all tag variants; also called VHH AK-H12; VHH-3; not shown: C-terminal tag that differs by assay: LPETG-His (recombinant protein: SPR, nanoDSF, liposome assay), HA-His6 (ELISA), HA
B5: VHHGSDMD-2 (VHH)
VHH: QVQLVESGGGLVQPGGSLRLSCVDSRSWINVYGANWYRQAPGKERELVAALTSGGTTNYADSVKGRFTISRDNAKNTVYLQMRDLKPEDTAVYYCNLERYTGSSVYPWGQGTQVTVSS
notes: Alpaca single-domain antibody; The crystal model holds VHH-2 residues 1-118; One entry is used for all tag variants; also called VHH AK-C03; VHH-2; not shown: C-terminal tag that differs by assay: LPETG-His (recombinant protein: SPR, nanoDSF, liposome assay, crystal), HA-His6 (E)
B6: VHHGSDMD-5 (VHH)
VHH: QVQLVETGGGLVQPGGSLRLSCAASGFVFSINPMNWYRQAPGKERELVAYISMRGSTTNYADSVKGRFIISRDNAKNTLYLQMNSLKPEDTAVYYCNAPSRSVWGQGTQVTVSS
notes: Alpaca single-domain antibody; also called VHH AK-G04; VHH-5; not shown: C-terminal HA-His tag (recombinant protein: SPR, nanoDSF, liposome assay, ELISA) or HA tag (LUMIER)

What was measured:
[1] = target: T1, human gasdermin D (GSDMD), full length; test: nanoDSF thermal shift, equimolar GSDMD and nanobody
Protocol: (§1) One representative out of three experiments is shown. d, Unfolding temperatures of GSDMD, the nanobodies and GSDMD-nanobody complexes were determined using nanoDSF. The unfolding temperatures of GSDMD at 5 μM and the GSDMD nanobody complexes after addition of 5 μM nanobody are shown. N=x, data represented with SD. e, Unfolding temperatures of GSDMD and GSDMD-nanobody complexes.
(§2) The thermal stability of the nanobodies and their impact on the thermostability of GSDMD was further analyzed using a thermal shift assay by nano-differential scanning fluorimetry (FIG. 11D, E and FIG. 18).

[2] = target: T1, human gasdermin D (GSDMD), full length; test: nanoDSF thermal shift, 5 µM GSDMD + 5 µM VHH; SD 0.5 °C; GSDMD alone 50.2 °C (SD 0.3)
Protocol: as §1, §2

[3] = target: T1, human gasdermin D (GSDMD), full length; test: SPR (Biacore 8K), chemically biotinylated GSDMD immobilised, VHH as analyte, multi-cycle kinetics, 1:1 fit
Protocol: (§3) Chemically biotinylated GSDMD was immobilized on a sensor chip and nanobodies were injected as analytes at the indicated concentrations for 120 s, followed by dissociation for 300 s. Dissociation constants (KDs) were determined from the association and dissociation fits by applying a 1:1 binding model. d, Epitope binning assay.
(§4) Surface plasmon resonance experiments were performed using a Biacore 8K instrument (GE Healthcare). The flow system was cleaned using the maintenance “Desorb” function (Desorb Kit, GE Healthcare). The system was flushed with running buffer (20 mM HEPES (pH 8.0), 200 mM NaCl, 5 mM DTT, 0.05% Tween20) and all steps were performed at 25° C. chip temperature. Chemically biotinylated GSDMD at a concentration of 100 nM was immobilized for 180 s on the flow cell 2 of a Series S Sensor Chip CAP using a biotin capture kit and a flow rate of 30 μl/min. The system was washed for 600 s with running buffer with a flow rate of 30 μl/min. Binding affinities were determined using multi-cycle kinetics. […] The association step was carried out for 120 s and the dissociation step for 300 s.

[4] = target: T1, human gasdermin D (GSDMD), full length; test: nanoDSF titration, 5 µM GSDMD + 5 µM VHH; SD 0.5; GSDMD 5 µM alone 50.2 °C, VHH-6 50 µM alone 42.6 and 53.5 °C
Protocol: (§5) The melting temperatures of GSDMD and the nanobodies alone were determined at concentrations of 5 and 50 μM, respectively.

GSDMD^CT = target: T2, GSDMD^CT; test: LUMIER co-IP in HEK293T, HA-tagged VHH with Renilla luciferase fusion
murine GsdmD = target: T3, murine GsdmD; test: as above
[5] = target: T1, human gasdermin D (GSDMD), full length; test: nanoDSF thermal shift, 5 µM GSDMD + 5 µM VHH; SD 1.0 °C; GSDMD alone 50.2 °C (SD 0.3)
Protocol: as §1, §2

[6] = target: T1, human gasdermin D (GSDMD), full length; test: SPR (Biacore 8K), biotinylated GSDMD immobilized, nanobody as analyte, multi-cycle kinetics, 1:1 model
Protocol: as §3, §4

[7] = target: T1, human gasdermin D (GSDMD), full length; test: nanoDSF titration, 5 µM GSDMD + 5 µM VHH; SD 1.0; GSDMD 5 µM alone 50.2 °C, VHH-1 50 µM alone 67.6 °C
Protocol: as §5

[8] = target: T1, human gasdermin D (GSDMD), full length; test: nanoDSF thermal shift, 5 µM GSDMD + 5 µM VHH; SD 1.3 °C; GSDMD alone 50.2 °C (SD 0.3)
Protocol: as §1, §2

[9] = target: T1, human gasdermin D (GSDMD), full length; test: nanoDSF titration, 5 µM GSDMD + 5 µM VHH; SD 1.3; GSDMD 5 µM alone 50.2 °C, VHH-3 50 µM alone 59.1 °C
Protocol: as §5

[10] = target: T1, human gasdermin D (GSDMD), full length; test: nanoDSF titration, 5 µM GSDMD + 5 µM VHH; SD 1.0; GSDMD 5 µM alone 50.2 °C, VHH-2 50 µM alone 58.0 °C
Protocol: as §5

[11] = target: T1, human gasdermin D (GSDMD), full length; test: nanoDSF thermal shift, 5 µM GSDMD + 5 µM VHH; SD 0.8 °C; GSDMD alone 50.2 °C (SD 0.3)
Protocol: as §1, §2

[12] = target: T1, human gasdermin D (GSDMD), full length; test: nanoDSF titration, 5 µM GSDMD + 5 µM VHH; SD 0.8; GSDMD 5 µM alone 50.2 °C, VHH-5 50 µM alone 58.5 °C
Protocol: as §5

| Binder | increase of the thermal stability of GSDMD [1] [°C] | binding result (GSDMD^CT) | binding result (murine GsdmD) | Tm of GSDMD with the VHH [5] [°C] | Kd [6] [nM] | also measured |
| --- | --- | --- | --- | --- | --- | --- |
| B1 | 4.2 | – | – | – | – | Tm of GSDMD with the VHH [2]: 54.4 °C; Kd [3]: 280 nM; Tm of GSDMD with the VHH [4]: 54.4 °C |
| B2 | ≤ 9.4 | no binding | no binding | 59.6 | 0.55 | Tm of GSDMD with the VHH [7]: 59.6 °C |
| B3 | – | no binding | – | – | – | – |
| B4 | ≤ 9.4 | no binding | – | – | 2.19 | Tm of GSDMD with the VHH [8]: 54.1 °C; Tm of GSDMD with the VHH [9]: 54.1 °C |
| B5 | ≤ 9.4 | no binding | no binding | 56 | 8.24 | Tm of GSDMD with the VHH [10]: 56 °C |
| B6 | – | no binding | – | – | 4.14 | decrease of the melting temperature of GSDMD [1]: ≤ 2.5 °C; Tm of GSDMD with the VHH [11]: 48.8 °C; Tm of GSDMD with the VHH [12]: 48.8 °C |
